Measured values from patent US20200317802A1 (Merck KGaA, published 2020).

T1: recombinant human ADAMTS5 (R&D Systems cat #2198-AD) (human, UniProt Q9UNA0 262-622, limits assumed)
T1 construct: bought protein
T1 sequence: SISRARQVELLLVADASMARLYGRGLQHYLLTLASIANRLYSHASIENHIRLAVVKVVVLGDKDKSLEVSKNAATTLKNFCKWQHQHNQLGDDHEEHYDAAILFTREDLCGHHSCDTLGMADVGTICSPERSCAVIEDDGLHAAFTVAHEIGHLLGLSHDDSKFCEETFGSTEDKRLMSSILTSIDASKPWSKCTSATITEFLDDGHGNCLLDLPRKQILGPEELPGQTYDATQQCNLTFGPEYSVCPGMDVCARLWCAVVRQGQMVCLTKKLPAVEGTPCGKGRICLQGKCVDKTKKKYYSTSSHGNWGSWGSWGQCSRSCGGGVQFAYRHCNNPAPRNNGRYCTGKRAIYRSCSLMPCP

T2: rat recombinant ADAMTS5 (rat, UniProt Q9R001 262-618 (mouse entry))
T2 construct: in house, HEK293, His tag in the entry
T2 chain: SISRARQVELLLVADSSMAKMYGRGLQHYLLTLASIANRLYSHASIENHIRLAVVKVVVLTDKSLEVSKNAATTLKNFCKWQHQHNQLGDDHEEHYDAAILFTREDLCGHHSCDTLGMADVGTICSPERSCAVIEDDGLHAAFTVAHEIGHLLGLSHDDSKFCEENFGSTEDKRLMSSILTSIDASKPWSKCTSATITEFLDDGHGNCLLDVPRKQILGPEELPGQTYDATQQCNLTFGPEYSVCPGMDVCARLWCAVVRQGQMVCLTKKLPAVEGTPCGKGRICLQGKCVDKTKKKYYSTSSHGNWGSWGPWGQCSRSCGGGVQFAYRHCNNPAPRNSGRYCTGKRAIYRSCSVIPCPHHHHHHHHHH


Legend:
[1] = target: T1, recombinant human ADAMTS5 (R&D Systems …); experiment: SPR kinetics, Biacore T100, ADAMTS5 immobilised
Description: (§1) For referencing, affinity for human ADAMTS5 was also determined. Thereto, rat and human ADAMTS5 were immobilized onto a CM5 chip via amine coupling, using EDC and NHS chemistry. Purified Nanobodies were injected for 2 minutes at different concentrations (between 1 and 1000 nM) and allowed to dissociate for 25 min at a flow rate of 45 μl/min. The kinetic constants were calculated from the sensorgrams using the BIAEvaluation software (1:1 interaction).

rat recombinant ADAMTS5 = target: T2, rat recombinant ADAMTS5; experiment: SPR kinetics, Biacore T100, ADAMTS5 immobilised
Description: as §1

[2] = target: T1, recombinant human ADAMTS5 (R&D Systems …); experiment: cell-based or functional assay
[3] = target: T1, recombinant human ADAMTS5 (R&D Systems …); experiment: cell-based or functional assay; remark: listed apart in the source

Binder | Kd [1] [nM] | Kd (rat recombinant ADAMTS5) [nM] | AlphaLISA IC50, - HSA [2] [nM] | AlphaLISA IC50, Exp 1 [3] [nM] | AlphaLISA IC50, Exp 2 [3] [nM] | AlphaLISA IC50, Exp 3 [3] [nM] | AlphaLISA IC50, Exp 4 [3] [nM]
Nanobody 093 (3F04 (N100fQ)) (VHH, N-glycosylation motif knocked out; also called construct 093) VHH: EVQLVESGGGSVQAGGSLRLSCVASGRYPMAWFRQAPGKEREFVAGVSWGGDRTYYADSVQGRFTVSRDYAKNTLYLQMNSLKPEDAAVYYCAGDPWGRLFRVKDQYSDWGQGTLVTVSS | 4.9 | 5.3 | – | – | – | – | –
Nanobody 049 (11B06 (N52S)) (VHH, N-glycosylation motif knocked out; also called construct 049) VHH: EVQLVESGGGLVQAGGSLRLSCAASGLTFRRNAMGWFRQAPGKERELLAGISWSGGTTYYVDSVKGRFTISRDNAKNTVDLQMISPKPEDTAVYYCAADGDIGTLVNDENPRYWGQGTLVTVSS | 3.5 | 1.7 | 0.1 | – | – | – | –
monovalent Nanobody 2F3^SO (2F3*) (VHH) VHH: DVQLVESGGGVVQPGGSLRLSCAASGRTVSSYAMGWFRQAPGKEREFVAGISRSAERTYYVDSLKGRFTISRDNSKNTVYLQMNSLRPEDTALYYCAADLDPNRIFSREEYAYWGQGTLVTVSS | – | – | – | 0.2 | 0.27 | 0.19 | 0.44
